Laboratory results as given in the supplement of paper PMC11246515.
± gives the standard deviation of the averaged measurements.

Assay: total protein half-life in vivo (active degradation + dilution); higher = more stable protein
[1] = E. coli NCM3722 delta-clpP delta-lon delta-hslV, growth: N-lim chemostat, doubling time 6 h
[2] = E. coli NCM3722 delta-clpP, growth: N-lim chemostat, doubling time 6 h
[3] = E. coli NCM3722 delta-hslV, growth: N-lim chemostat, doubling time 6 h
[4] = E. coli NCM3722 delta-smpB, growth: N-lim chemostat, doubling time 6 h
[5] = wild type E. coli NCM3722, growth: C-lim chemostat, doubling time 3 h
[6] = wild type E. coli NCM3722, growth: C-lim chemostat, doubling time 6 h
[7] = wild type E. coli NCM3722, growth: C-lim chemostat, doubling time 12 h
[8] = wild type E. coli NCM3722, growth: N-lim chemostat, doubling time 6 h
[9] = wild type E. coli NCM3722, growth: N-lim chemostat, doubling time 12 h
[10] = wild type E. coli NCM3722, growth: P-lim chemostat, doubling time 6 h
[11] = wild type E. coli NCM3722, growth: P-lim chemostat, doubling time 12 h
[12] = E. coli NCM3722 delta-lon, growth: N-lim chemostat, doubling time 6 h

| Sequence | total protein half-life in vivo [1] [h] | total protein half-life in vivo [2] [h] | total protein half-life in vivo [3] [h] | total protein half-life in vivo [4] [h] | total protein half-life in vivo [5] [h] | total protein half-life in vivo [6] [h] | total protein half-life in vivo [7] [h] | total protein half-life in vivo [8] [h] | total protein half-life in vivo [9] [h] | total protein half-life in vivo [10] [h] | total protein half-life in vivo [11] [h] | total protein half-life in vivo [12] [h] |
| --- | --- | --- | --- | --- | --- | --- | --- | --- | --- | --- | --- | --- |
| MRILLSNDDGVHAPGIQTLAKALREFADVQVVAPDRNRSGASNSLTLESSLRTFTFENGDIAVQMGTPTDCVYLGVNALMRPRPDIVVSGINAGPNLGDDVIYSGTVAAAMEGRHLGFPALAVSLDGHKHYDTAAAVTCSILRALCKEPLRTGRILNINVPDLPLDQIKGIRVTRCGTRHPADQVIPQQDPRGNTLYWIGPPGGKCDAGPGTDFAAVDEGYVSITPLHVDLTAHSAQDVVSDWLNSVGVGTQW [P0A840] | 4.833 ± 0.047 | 4.03 | 4.1 ± 0.25 | 3.71 ± 0.83 | 3.04 ± 0.33 | 6.21 ± 0.81 | 8.36 ± 0.48 | 4.5 | 5.84 ± 1.5 | – | – | – |
| MDYVCSVVFICQSFDLIINRRVISFKKNSLFIVSDKIRRELPVCPSKLRIVDIDKKTCLSFFIDVNNELPGKFTLDKNGYIAEEEPPLSLVFSLFEGIKIADSHSLWLKERLCISLLAMFKKRESVNSFILTNINTFTCKITGIISFNIERQWHLKDIAELIYTSESLIKKRLRDEGTSFTEILRDTRMRYAKKLITSNSYSINVVAQKCGYNSTSYFICAFKDYYGVTPSHYFEKIIGVTDGINKTID | 5.39 ± 1.1 | 3.62 ± 0.73 | 3.65 ± 0.5 | 3.18 ± 0.42 | 2.27 ± 0.2 | 4.11 ± 0.32 | 6.14 | 2.95 | 5.67 ± 0.64 | 3.89 ± 0.38 | 7.61 ± 2.4 | – |
| MKVTFEQLKAAFNRVLISRGVDSETADACAEMFARTTESGVYSHGVNRFPRFIQQLENGDIIPDAQPKRITSLGAIEQWDAQRSIGNLTAKKMMDRAIELAADHGIGLVALRNANHWMRGGSYGWQAAEKGYIGICWTNSIAVMPPWGAKECRIGTNPLIVAIPSTPITMVDMSMSMFSYGMLEVNRLAGRQLPVDGGFDDEGNLTKEPGVIEKNRRILPMGYWKGSGMSIVLDMIATLLSDGASVAEVTQDNSDEYGISQIFIAIEVDKLIDGPTRDAKLQRIMDYVTSAERADENQAIRLPGHEFTTLLAENRRNGITVDDSVWAKIQAL | – | – | – | – | 2.77 ± 0.16 | 5.23 ± 0.17 | 9.43 ± 1.9 | – | – | – | – | – |
| MSNFINIHVLISHSPSCLNRDDMNMQKDAIFGGKRRVRISSQSLKRAMRKSGYYAQNIGESSLRTIHLAQLRDVLRQKLGERFDQKIIDKTLALLSGKSVDEAEKISADAVTPWVVGEIAWFCEQVAKAEADNLDDKKLLKVLKEDIAAIRVNLQQGVDIALSGRMATSGMMTELGKVDGAMSIAHAITTHQVDSDIDWFTAVDDLQEQGSAHLGTQEFSSGVFYRYANINLAQLQENLGGASREQALEIATHVVHMLATEVPGAKQRTYAAFNPADMVMVNFSDMPLSMANAFEKAVKAKDGFLQPSIQAFNQYWDRVANGYGLNGAAAQFSLSDVDPITAQVKQMPTLEQLKSWVRNNGEA | 6.17 ± 0.55 | 2.77 | – | – | 2.13 | 4.22 | – | – | – | 5.28 | 11.4 ± 1.2 | 2.71 |
| MDAMKYNDLRDFLTLLEQQGELKRITLPVDPHLEITEIADRTLRAGGPALLFENPKGYSMPVLCNLFGTPKRVAMGMGQEDVSALREVGKLLAFLKEPEPPKGFRDLFDKLPQFKQVLNMPTKRLRGAPCQQKIVSGDDVDLNRIPIMTCWPEDAAPLITWGLTVTRGPHKERQNLGIYRQQLIGKNKLIMRWLSHRGGALDYQEWCAAHPGERFPVSVALGADPATILGAVTPVPDTLSEYAFAGLLRGTKTEVVKCISNDLEVPASAEIVLEGYIEQGETAPEGPYGDHTGYYNEVDSFPVFTVTHITQREDAIYHSTYTGRPPDEPAVLGVALNEVFVPILQKQFPEIVDFYLPPEGCSYRLAVVTIKKQYAGHAKRVMMGVWSFLRQFMYTKFVIVCDDDVNARDWNDVIWAITTRMDPARDTVLVENTPIDYLDFASPVSGLGSKMGLDATNKWPGETQREWGRPIKKDPDVVAHIDAIWDELAIFNNGKSA [P0AAB4] | 6.47 ± 0.5 | 6.032 ± 0.049 | 6.88 ± 0.78 | 6.38 ± 0.54 | 2.98 ± 0.37 | 6.29 ± 0.21 | 11.3 ± 0.45 | 5.82 ± 0.23 | 11.4 ± 0.32 | 5.99 ± 0.093 | 12.5 ± 0.62 | 6.27 ± 0.71 |
| MKKNRAFLKWAGGKYPLLDDIKRHLPKGECLVEPFVGAGSVFLNTDFSRYILADINSDLISLYNIVKMRTDEYVQAARELFVPETNCAEVYYQFREEFNKSQDPFRRAVLFLYLNRYGYNGLCRYNLRGEFNVPFGRYKKPYFPEAELYHFAEKAQNAFFYCESYADSMARADDASVVYCDPPYAPLSATANFTAYHTNSFTLEQQAHLAEIAEGLVERHIPVLISNHDTMLTREWYQRAKLHVVKVRRSISSNGGTRKKVDELLALYKPGVVSPAKK [P0AEE8] | 5.89 ± 0.51 | 4.15 ± 0.098 | 5.84 ± 0.34 | 4.51 ± 0.34 | 2.94 ± 0.05 | 5.65 ± 0.72 | 10.2 ± 0.14 | 4.65 ± 0.55 | 10.1 ± 0.92 | 5.39 ± 0.27 | 10.9 ± 0.14 | 4.29 ± 2.2 |
| MNVIRTEIEDVLILEPRVFGDDRGFFYESFNQSAFEHILGYPVSFVQDNHSRSSKNVLRGLHFQRGEYAQDKLVRCTHGAVFDVAVDIRPNSVSFGKWVGVLLSADNKQQLWIPKGFAHGFLVLSDIAEFQYKTTNYYHPESDCGICWNDERIAIDWPQTSGLILSPKDERLFTLDELIRLKLIA | 6.28 | – | – | – | – | – | – | – | 3.7 | – | – | 3.33 ± 0.14 |
| MIINNVKLVLENEVVSGSLEVQNGEIRAFAESQSRLPEAMDGEGGWLLPGLIELHTDNLDKFFTPRPKVDWPAHSAMSSHDALMVASGITTVLDAVAIGDVRDGGDRLENLEKMINAIEETQKRGVNRAEHRLHLRCELPHHTTLPLFEKLVQREPVTLVSLMDHSPGQRQFANREKYREYYQGKYSLTDAQMQQYEEEQLALAARWSQPNRESIAALCRARKIALASHDDATHAHVAESHQLGSVIAEFPTTFEAAEASRKHGMNVLMGAPNIVRGGSHSGNVAASELAQLGLLDILSSDYYPASLLDAAFRVADDQSNRFTLPQAVKLVTKNPAQALNLQDRGVIGEGKRADLVLAHRKDNHIHIDHVWRQGKRVF | – | – | – | – | – | – | – | – | – | 1.05 ± 0.23 | 1.89 ± 0.87 | – |
| MGQSSQPHELGGGLKSRHVTMLSIAGVIGASLFVGSSVAIAEAGPAVLLAYLFAGLLVVMIMRMLAEMAVATPDTGSFSTYADKAIGRWAGYTIGWLYWWFWVLVIPLEANIAAMILHSWVPGIPIWLFSLVITLALTGSNLLSVKNYGEFEFWLALCKVIAILAFIFLGAVAISGFYPYAEVSGISRLWDSGGFMPNGFGAVLSAMLITMFSFMGAEIVTIAAAESDTPEKHIVRATNSVIWRISIFYLCSIFVVVALIPWNMPGLKAVGSYRSVLELLNIPHAKLIMDCVILLSVTSCLNSALYTASRMLYSLSRRGDAPAVMGKINRSKTPYVAVLLSTGAAFLTVVVNYYAPAKVFKFLIDSSGAIALLVYLVIAVSQLRMRKILRAEGSEIRLRMWLYPWLTWLVIGFITFVLVVMLFRPAQQLEVISTGLLAIGIICTVPIMARWKKLVLWQKTPVHNTR | – | – | 0.975 | 1.1 | – | – | – | – | – | – | – | – |
